One assay addresses T1, purified CRR9 ectodomain (human, UniProt Q5R7B1 32-284 (Pongo abelii entry), limits assumed).
T1 construct: also called CLPTM1L ectodomain
T1 sequence: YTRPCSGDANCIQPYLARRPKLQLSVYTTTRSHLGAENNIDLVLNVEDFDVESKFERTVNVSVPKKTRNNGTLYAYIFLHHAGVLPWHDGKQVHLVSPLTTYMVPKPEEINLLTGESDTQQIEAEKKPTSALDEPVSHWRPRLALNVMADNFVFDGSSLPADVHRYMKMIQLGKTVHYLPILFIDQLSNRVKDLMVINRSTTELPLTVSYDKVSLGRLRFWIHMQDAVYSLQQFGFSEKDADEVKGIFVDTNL
The assay is described as follows: ELISA with purified CRR9 ectodomain. For orientation: ELISA stands for enzyme-linked immunosorbent assay.

The next assay has as its target T2, mouse CLPTM1L protein (mouse, UniProt Q8BXA5 1-539).
T2 construct: whole, on cells; also called the mouse protein
T2 sequence (looked up): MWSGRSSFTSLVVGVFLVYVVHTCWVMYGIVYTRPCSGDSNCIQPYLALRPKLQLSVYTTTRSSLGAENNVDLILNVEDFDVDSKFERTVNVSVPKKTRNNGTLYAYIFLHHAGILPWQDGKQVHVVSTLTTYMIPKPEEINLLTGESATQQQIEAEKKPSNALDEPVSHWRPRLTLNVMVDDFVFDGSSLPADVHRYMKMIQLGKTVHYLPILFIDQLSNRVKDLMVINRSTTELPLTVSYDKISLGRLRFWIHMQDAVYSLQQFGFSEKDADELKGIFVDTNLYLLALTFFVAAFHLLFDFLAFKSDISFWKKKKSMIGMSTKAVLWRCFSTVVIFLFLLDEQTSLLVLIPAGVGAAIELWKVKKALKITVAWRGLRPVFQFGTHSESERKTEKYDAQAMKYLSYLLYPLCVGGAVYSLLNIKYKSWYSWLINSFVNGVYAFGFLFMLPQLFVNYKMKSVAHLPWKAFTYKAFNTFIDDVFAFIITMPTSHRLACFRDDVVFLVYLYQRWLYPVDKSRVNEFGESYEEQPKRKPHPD
Description: flow cytometry on live ID8-luc mouse ovarian tumor cells (102-5 primary by the legend of FIG. 31A). The procedure: (E) Final relative mean volumes of SL3 and SL3cis xenograft tumors 24 days post-inoculation. […] (F) Mean volumes of SL3 and SL3cis xenograft tumors relative to group mean volume after sorting from days 0 to 24 post-inoculation. *p<0.05, **p<0.005, ***p<0.0005. Error bars represent standard error of the mean.
Flow cytometry was conducted per AbCam protocol for indirect flow cytometry. Tumor cells were harvested by trypsinization and suspended in cold PBS, 10% FBS, 0.05% NaN₃. 100 μL of cell suspension was added to 12×75 mm polystyrene tubes. 10 μg/mL of primary antibody diluted in PBS 3% BSA was added and tubes were incubated at 4° C. in the dark for 45 minutes. After washing 3 times in cold PBS, cells were resuspended in rabbit anti-Human Fc (H&L)-Alexafluor 488 (Abcam) in PBS 3% BSA and incubated at 4 C in the dark for 30 minutes. After washing 3 times in cold PBS, cells were suspended in 500 μL cold PBS, 3% BSA, 0.05% NaN₃ and analyzed on an Accuri C6 flow cytometer. Cells were gated for live cells based on scatter and fluorescence was plotted on a histogram using Flowing Software 2 (Turku Bioimaging).
(In general: In flow cytometry, cells or beads pass a laser one at a time.)

For assay [1], the target named is T3, human CLPTM1L/CRR9 protein (human, UniProt Q96KA5 1-538).
T3 construct: also called Cisplatin Resistance Related Protein-9; Cleft-Lip and Palate Transmembrane Protein-Like Protein 1
T3 sequence: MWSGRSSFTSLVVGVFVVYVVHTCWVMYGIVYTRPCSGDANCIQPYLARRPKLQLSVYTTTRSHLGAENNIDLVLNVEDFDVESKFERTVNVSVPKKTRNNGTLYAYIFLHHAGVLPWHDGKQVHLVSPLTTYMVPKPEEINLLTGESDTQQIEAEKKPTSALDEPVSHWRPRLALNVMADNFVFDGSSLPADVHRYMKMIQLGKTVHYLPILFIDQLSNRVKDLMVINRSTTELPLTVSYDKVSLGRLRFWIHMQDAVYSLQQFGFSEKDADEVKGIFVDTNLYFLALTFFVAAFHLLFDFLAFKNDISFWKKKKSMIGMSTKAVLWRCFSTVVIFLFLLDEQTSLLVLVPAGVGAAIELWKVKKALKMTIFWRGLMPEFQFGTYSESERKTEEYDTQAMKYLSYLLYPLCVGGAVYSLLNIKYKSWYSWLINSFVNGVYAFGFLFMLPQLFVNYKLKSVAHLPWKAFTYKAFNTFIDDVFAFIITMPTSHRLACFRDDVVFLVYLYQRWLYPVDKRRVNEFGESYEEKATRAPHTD
Description: on-cell detection of fluorescently labeled 102-5 on live Panc1 tumor cells, with or without competitors (excess 10-2 mouse ascites or excess purified CRR9 ectodomain).

B1: 102-5 full-length human IgG1 anti-CLPTM1L (antibody, V domains shown)
VH: EVQLLESGGGLVQPGGSLRLSCAASGFSFSSYEMNWVRQAPGKGPEWISYISSGGGTIYYADSVRGRFTISRDNSNNTLYLQMNSLRPDDTAIYYCARDRGRKWLQLLFDSWGQGTLVTVSS
VL: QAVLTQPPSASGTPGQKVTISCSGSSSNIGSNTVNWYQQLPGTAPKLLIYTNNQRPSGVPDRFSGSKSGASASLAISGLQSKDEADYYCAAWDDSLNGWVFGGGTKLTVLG
notes: also called ESS102-5
The Kd is a measure of binding affinity in units of concentration. A higher Kd goes with a looser complex. B1: the affinity in the assay with purified CRR9 ectodomain, expressed as Kd, was 1 nM. Besides, the binding result (in the assay with mouse CLPTM1L protein; in assay [1]) was “binds” throughout.

The values are drawn from patent publication US20250090876A1 (MEDICAL COLLEGE OF WISCONSIN, published 2025).
